Measured values from patent US20210340215A1 (published 2021).

What was measured:
[1] = target: T1, TMPRSS2:ERG gene fusion peptide on HLA-A*02:01 (human); experiment: multimer staining
T1 peptide: ALNSEALSV
From the text: (§1) Neoantigen specific T cells were detected by combining HLA-multimer staining with 2 different fluorochrome conjugated recombinant HLA (HLA-A02.01, HLA-A03.01, or HLA-A11.01) multimer with neoantigen peptides. Anti-CD8, anti-CD4, anti-CD19, anti-CD16, anti-CD14, anti-CD56 and antibodies and Live/Dead IR dye (Invitrogen) were used for cell surface staining. CD8⁺ T cells were identified as CD8⁺CD4⁻CD19⁻CD16⁻CD14⁻CD56⁻IR⁻ (FIGS. 1, 2, 4A, 5, 6A, 8F, 8G, 9, 10A, 10B, 11, 13, 15, 16A and 16B). For sorting, up to 5×10⁶ cells were incubated with 1-20 μg multimer in 100 μL PBS+0.5% human serum. Antibodies and Live/Dead IR dye were used to stain the cells for an additional 30 min. After staining, cells were washed twice and diluted in PBS+0.5% human serum. Live/Dead IR dye-negative cells were gated and CD8⁺/multimer⁺ T cells were sorted on a FACSAria cell sorter (BD Biosciences).

[2] = target: T2, GATA3 neoORF (frameshift; CSNH) peptide on HLA-B*08:01 (human); experiment: cytokine release
T2 peptide: ESKIMFATL

[3] = target: T3, BTK C481S peptide on HLA-A*02:01 (human); experiment: multimer staining
T3 peptide: SLLNYLREM
From the text: as §1

[4] = target: T4, KRAS G12V peptide on HLA-A*11:01 (human); experiment: multimer staining
T4 peptide: VVGAVGVGK
From the text: as §1

[5] = target: T5, GATA3 neoORF (frameshift; CSNH) peptide on HLA-A*02:01 (human); experiment: multimer staining
T5 peptide: MLTGPPARV
From the text: as §1

B1: TMPRSS2::ERG TCR-1 (TCR, V domains shown)
Valpha: AQKVTQAQTEISVVEKEDVTLDCVYETRDTTYYLFWYKQPPSGELVFLIRRNSFDEQNEISGRYSWNFQKSTSSFNFTITASQVVDSAVYFCALSEARVFNGANSKLTFGKGITLSVRP
Vbeta: EAGVTQFPSHSVIEKGQTVTLRCDPISGHDNLYWYRRVMGKEIKFLLHFVKESKQDESGMPNNRFLAERTGGTYSTLKVQPAELEDSGVYFCASSQADSPLHFGNGTRLTVT
binding result [1]: recognises

B2: GATA3 TCR-3 (TCR, V domains shown)
Valpha: AQSVSQHNHHVILSEAASLELGCNYSYGGTVNLFWYVQYPGQHLQLLLKYFSGDPLVKGIKGFEAEFIKSKFSFNLRKPSVQWSDTAEYFCAVISVTGNNRKLIWGLGTSLAVNP
Vbeta: DGGITQSPKYLFRKEGQNVTLSCEQNLNHDAMYWYRQDPGQGLRLIYYSQIVNDFQKGDIAEGYSVSREKKESFPLTVTSAQKNPTAFYLCASSRTAMNTEAFFGQGTRLTVV
binding result [2]: recognises

B3: BTK TCR-1 (TCR, V domains shown)
Valpha: QKEVEQNSGPLSVPEGAIASLNCTYSDRGSQSFFWYRQYSGKSPELIMFIYSNGDKEDGRFTAQLNKASQYVSLLIRDSQPSDSATYLCAVNDYGGSQGNLIFGKGTKLSVKP
Vbeta: DTGVSQNPRHKITKRGQNVTFRCDPISEHNRLYWYRQTLGQGPEFLTYFQNEAQLEKSRLLSDRFSAERPKGSFSTLEIQRTEQGDSAMYLCASSFGPDEKLFFGSGTQLSVL
binding result [3]: recognises

B4: BTK TCR-2 (TCR, V domains shown)
Valpha: QKEVEQNSGPLSVPEGAIASLNCTYSDRGSQSFFWYRQYSGKSPELIMFIYSNGDKEDGRFTAQLNKASQYVSLLIRDSQPSDSATYLCAVNEGDSSYKLIFGSGTRLLVRP
Vbeta: DSGVTQTPKHLITATGQRVTLRCSPRSGDLSVYWYQQSLDQGLQFLIQYYNGEERAKGNILERFSAQQFPDLHSELNLSSLELGDSALYFCASSPGANEKLFFGSGTQLSVL
binding result [3]: recognises

B5: RAS TCR-26 (TCR, V domains shown)
Valpha: DQQVKQNSPSLSVQEGRISILNCDYTNSMFDYFLWYKKYPAEGPTFLISISSIKDKNEDGRFTVFLNKSAKHLSLHIVPSQPGDSAVYFCAANAGGTSYGKLTFGQGTILTVHP
Vbeta: EPEVTQTPSHQVTQMGQEVILRCVPISNHLYFYWYRQILGQKVEFLVSFYNNEISEKSEIFDDQFSVERPDGSNFTLKIRSTKLEDSAMYFCASSEWGSTGELFFGEGSRLTVL
binding result [4]: recognises

B6: RAS TCR-27 (TCR, V domains shown)
Valpha: ELKVEQNPLFLSMQEGKNYTIYCNYSTTSDRLYWYRQDPGKSLESLFVLLSNGAVKQEGRLMASLDTKARLSTLHITAAVHDLSATYFCAVDIIGGKSTFGDGTTLTVKP
Vbeta: B5 Vbeta
binding result [4]: recognises

B7: GATA3 TCR-1 (TCR, V domains shown)
Valpha: SQKIEQNSEALNIQEGKTATLTCNYTNYSPAYLQWYRQDPGRGPVFLLLIRENEKEKRKERLKVTFDTTLKQSLFHITASQPADSATYLCALDIYGNNRLAFGKGNQVVVIP
Vbeta: DVKVTQSSRYLVKRTGEKVFLECVQDMDHENMFWYRQDPGLGLRLIYFSYDVKMKEKGDIPEGYSVSREKKERFSLILESASTNQTSMYLCASSLDFVLAGSYSYNEQFFGPGTRLTVL
binding result [5]: recognises

B8: RAS TCR-28 (TCR, V domains shown)
Valpha: DQQVKQNSPSLSVQEGRISILNCDYTNSMFDYFLWYKKYPAEGPTFLISISSIKDKNEDGRFTVFLNKSAKHLSLHIVPSQPGDSAVYFCAASAVGQEYGNKLVFGAGTILRVKS
Vbeta: DTGVSQNPRHKITKRGQNVTFRCDPISEHNRLYWYRQTLGQGPEFLTYFQNEAQLEKSRLLSDRFSAERPKGSFSTLEIQRTEQGDSAMYLCASSEYTMGTQYFGPGTRLLVL
binding result [4]: recognises
